In article PMC4506739 one finds fold higher affinity than TPX2 NLS and stoichiometry N data, which are given here for two substances.

The target of the test is importin α ΔIBB (NLS-recognition domain of importin α). The test can be described thus: ITC. In general terms: In ITC the heat of successive injections is recorded.

The term stoichiometry N denotes the number of molecules, sites or subunits per partner or assembly.

“GM130 N74 S25D-GST (Cdk1 phospho-mimicking mutant) (from UniProt Q62839 1-74) (domain or fragment)” showed a fold higher affinity than TPX2 NLS of 9 fold and a stoichiometry N of 1. The substance “GST-TPX2 NLS wildtype (mouse TPX2 residues 302-322) (from UniProt A2APB8 302-322) (peptide)” yielded a stoichiometry N of 1.
